B1: fusion protein shown in SEQ ID NO. 7 (anti-CD44 single-chain antibody, CD28, truncated body of IL7Rα, CD3, T2A, anti-TIM3 single-chain antibody), expressed on … (other)
chain: QVQLVESGGGVVQPGRSLRLSCAASGFTFSSYGMHWVRQAPGKGLEWVAVIWYDGSNKFYADSVKGRFTISRDNSKNTLYLQMNSLRAEDTAVYYCARRSDYRGYYGMDVWGQGTTVTVSSGSTSGGGSGGGSGGGGSSEIVLTQSPATLSLSPGERATLSCRASQSVINYLAWYQQKPGQAPRLLIYDASNRASGIPARFSGSGSGTDFTLTISSLEPEDFAVYYCQQRRNWPLTFGGGTKVEIKTTTPAPRPPTPAPTIASQPLSLRPEACRPAAGGAVHTRGLDFACDIYIWAPLAGTCGVLLLSLVITLYCRSKRSRLLHSDYMNMTPRRPGPTRKHYQPYAPPRDFAAYRSKKRIKPIVWPSLPDHKKTLEHLCKKPRKNLNVSFNPESFLDCQIHRVDDIQARDEVEGFLQDTFPQQLEESEKQRLLGSNQEEAYVTMSSFYQNQRVKFSRSADAPAYKQGQNQLYNELNLGRREEYDVLDKRRGRDPEMGGKPRRKNPQEGLYNELQKDKMAEAYSEIGMKGERRRGKGHDGLYQGLSTATKDTYDALHMQALPPREGRGSLLTCGDVEENPGPMTNKCLLQIALLLCFSTTALSQVQLQQSGPGLVKPSHTLSLTCTVSGGSISSGGYYWSWTRQHPGMGLEWIGYISYSGSIYYTPSLKSRLTISVDTSKNQFSLKLSSVTAADTAVYYCASLDSWGSNRDYWGQGTLVTVSSGGGGSEIVLTQSPATLSLSPGERATLSCRASQSVSSYLAWYQQKPGQAPRLLIYDASNRATGIPARFSGSGSGTDFTLTISSLEPEDFAVYYCQQRSNWPLTFGGGTKVEIK
B2: fusion protein shown in SEQ ID NO. 4 (anti-CD44 single-chain antibody, anti-CD133 single-chain antibody, CD28, CD3), expressed on CAR-T 2 cells (other)
chain: QVQLVESGGGVVQPGRSLRLSCAASGFTFSSYGMHWVRQAPGKGLEWVAVIWYDGSNKFYADSVKGRFTISRDNSKNTLYLQMNSLRAEDTAVYYCARRSDYRGYYGMDVWGQGTTVTVSSGSTSGGGSGGGSGGGGSSEIVLTQSPATLSLSPGERATLSCRASQSVINYLAWYQQKPGQAPRLLIYDASNRASGIPARFSGSGSGTDFTLTISSLEPEDFAVYYCQQRRNWPLTFGGGTKVEIKGGGGSGGGGSGGGGSQVQLVQSGAEVKKPGASVKVSCKASGYTFTDFEMHWVRQAPGQGLEWMGDIDPGTGDTAYNLKFKGRVTMTTDTSTSTAYMELRSLRSDDTAVYYCALGAFVYWGQGTLVTVSSGSTSGGGSGGGSGGGGSSDVVMTQSPLSLPVTPGEPASISCRSSQSLANSYGNTYLSWYLQKPGQSPQLLIYGISNRFSGVPDRFSGSGSGTDFTLKISRVEAEDVGVYYCLQGTHQPYTFGQGTKLEIKTTTPAPRPPTPAPTIASQPLSLRPEACRPAAGGAVHTRGLDFACDIYIWAPLAGTCGVLLLSLVITLYCRSKRSRLLHSDYMNMTPRRPGPTRKHYQPYAPPRDFAAYRSRVKFSRSADAPAYKQGQNQLYNELNLGRREEYDVLDKRRGRDPEMGGKPRRKNPQEGLYNELQKDKMAEAYSEIGMKGERRRGKGHDGLYQGLSTATKDTYDALHMQALPPR
B3: fusion protein shown in SEQ ID NO. 3 (anti-CD44 single-chain antibody, CD28, CD3), expressed on CAR-T 1 cells (other)
chain: QVQLVESGGGVVQPGRSLRLSCAASGFTFSSYGMHWVRQAPGKGLEWVAVIWYDGSNKFYADSVKGRFTISRDNSKNTLYLQMNSLRAEDTAVYYCARRSDYRGYYGMDVWGQGTTVTVSSGSTSGGGSGGGSGGGGSSEIVLTQSPATLSLSPGERATLSCRASQSVINYLAWYQQKPGQAPRLLIYDASNRASGIPARFSGSGSGTDFTLTISSLEPEDFAVYYCQQRRNWPLTFGGGTKVEIKTTTPAPRPPTPAPTIASQPLSLRPEACRPAAGGAVHTRGLDFACDIYIWAPLAGTCGVLLLSLVITLYCRSKRSRLLHSDYMNMTPRRPGPTRKHYQPYAPPRDFAAYRSRVKFSRSADAPAYKQGQNQLYNELNLGRREEYDVLDKRRGRDPEMGGKPRRKNPQEGLYNELQKDKMAEAYSEIGMKGERRRGKGHDGLYQGLSTATKDTYDALHMQALPPR
B4: fusion protein shown in SEQ ID NO. 6 (anti-CD44 single-chain antibody, CD28, CD3, T2A, anti-TIM3 single-chain antibody), expressed on CAR-T 4 cells (other)
chain: QVQLVESGGGVVQPGRSLRLSCAASGFTFSSYGMHWVRQAPGKGLEWVAVIWYDGSNKFYADSVKGRFTISRDNSKNTLYLQMNSLRAEDTAVYYCARRSDYRGYYGMDVWGQGTTVTVSSGSTSGGGSGGGSGGGGSSEIVLTQSPATLSLSPGERATLSCRASQSVINYLAWYQQKPGQAPRLLIYDASNRASGIPARFSGSGSGTDFTLTISSLEPEDFAVYYCQQRRNWPLTFGGGTKVEIKTTTPAPRPPTPAPTIASQPLSLRPEACRPAAGGAVHTRGLDFACDIYIWAPLAGTCGVLLLSLVITLYCRSKRSRLLHSDYMNMTPRRPGPTRKHYQPYAPPRDFAAYRSRVKFSRSADAPAYKQGQNQLYNELNLGRREEYDVLDKRRGRDPEMGGKPRRKNPQEGLYNELQKDKMAEAYSEIGMKGERRRGKGHDGLYQGLSTATKDTYDALHMQALPPREGRGSLLTCGDVEENPGPMTNKCLLQIALLLCFSTTALSQVQLQQSGPGLVKPSHTLSLTCTVSGGSISSGGYYWSWTRQHPGMGLEWIGYISYSGSIYYTPSLKSRLTISVDTSKNQFSLKLSSVTAADTAVYYCASLDSWGSNRDYWGQGTLVTVSSGGGGSEIVLTQSPATLSLSPGERATLSCRASQSVSSYLAWYQQKPGQAPRLLIYDASNRATGIPARFSGSGSGTDFTLTISSLEPEDFAVYYCQQRSNWPLTFGGGTKVEIK
B5: fusion protein shown in SEQ ID NO. 5 (anti-CD44 single-chain antibody, CD28, truncated body of IL7Rα, CD3), expressed on CAR-T 3 cells (other)
chain: QVQLVESGGGVVQPGRSLRLSCAASGFTFSSYGMHWVRQAPGKGLEWVAVIWYDGSNKFYADSVKGRFTISRDNSKNTLYLQMNSLRAEDTAVYYCARRSDYRGYYGMDVWGQGTTVTVSSGSTSGGGSGGGSGGGGSSEIVLTQSPATLSLSPGERATLSCRASQSVINYLAWYQQKPGQAPRLLIYDASNRASGIPARFSGSGSGTDFTLTISSLEPEDFAVYYCQQRRNWPLTFGGGTKVEIKTTTPAPRPPTPAPTIASQPLSLRPEACRPAAGGAVHTRGLDFACDIYIWAPLAGTCGVLLLSLVITLYCRSKRSRLLHSDYMNMTPRRPGPTRKHYQPYAPPRDFAAYRSKKRIKPIVWPSLPDHKKTLEHLCKKPRKNLNVSFNPESFLDCQIHRVDDIQARDEVEGFLQDTFPQQLEESEKQRLLGSNQEEAYVTMSSFYQNQRVKFSRSADAPAYKQGQNQLYNELNLGRREEYDVLDKRRGRDPEMGGKPRRKNPQEGLYNELQKDKMAEAYSEIGMKGERRRGKGHDGLYQGLSTATKDTYDALHMQALPPR
B6: fusion protein shown in SEQ ID NO. 8 (anti-CD44 single-chain antibody, anti-CD133 single-chain antibody, CD28, truncated body of IL7Rα, CD3, T2A, anti-TIM3 … (other)
chain: QVQLVESGGGVVQPGRSLRLSCAASGFTFSSYGMHWVRQAPGKGLEWVAVIWYDGSNKFYADSVKGRFTISRDNSKNTLYLQMNSLRAEDTAVYYCARRSDYRGYYGMDVWGQGTTVTVSSGSTSGGGSGGGSGGGGSSEIVLTQSPATLSLSPGERATLSCRASQSVINYLAWYQQKPGQAPRLLIYDASNRASGIPARFSGSGSGTDFTLTISSLEPEDFAVYYCQQRRNWPLTFGGGTKVEIKGGGGSGGGGSGGGGSQVQLVQSGAEVKKPGASVKVSCKASGYTFTDFEMHWVRQAPGQGLEWMGDIDPGTGDTAYNLKFKGRVTMTTDTSTSTAYMELRSLRSDDTAVYYCALGAFVYWGQGTLVTVSSGSTSGGGSGGGSGGGGSSDVVMTQSPLSLPVTPGEPASISCRSSQSLANSYGNTYLSWYLQKPGQSPQLLIYGISNRFSGVPDRFSGSGSGTDFTLKISRVEAEDVGVYYCLQGTHQPYTFGQGTKLEIKTTTPAPRPPTPAPTIASQPLSLRPEACRPAAGGAVHTRGLDFACDIYIWAPLAGTCGVLLLSLVITLYCRSKRSRLLHSDYMNMTPRRPGPTRKHYQPYAPPRDFAAYRSKKRIKPIVWPSLPDHKKTLEHLCKKPRKNLNVSFNPESFLDCQIHRVDDIQARDEVEGFLQDTFPQQLEESEKQRLLGSNQEEAYVTMSSFYQNQRVKFSRSADAPAYKQGQNQLYNELNLGRREEYDVLDKRRGRDPEMGGKPRRKNPQEGLYNELQKDKMAEAYSEIGMKGERRRGKGHDGLYQGLSTATKDTYDALHMQALPPREGRGSLLTCGDVEENPGPMTNKCLLQIALLLCFSTTALSQVQLQQSGPGLVKPSHTLSLTCTVSGGSISSGGYYWSWTRQHPGMGLEWIGYISYSGSIYYTPSLKSRLTISVDTSKNQFSLKLSSVTAADTAVYYCASLDSWGSNRDYWGQGTLVTVSSGGGGSEIVLTQSPATLSLSPGERATLSCRASQSVSSYLAWYQQKPGQAPRLLIYDASNRATGIPARFSGSGSGTDFTLTISSLEPEDFAVYYCQQRSNWPLTFGGGTKVEIK

Target: CD44 on CD44-positive and CD133-positive glioma stem cells GSC20 (UniProt P16070 21-742)
Assay: cell-based or functional assay

Binder	Lysis rate of glioma stem cells by CAR-T cells (LDH release), effect-target ratio 1:1	Lysis rate of glioma stem cells by CAR-T cells (LDH release), effect-target ratio 2:1	Lysis rate of glioma stem cells by CAR-T cells (LDH release), effect-target ratio 3:1	Lysis rate of glioma stem cells by CAR-T cells (LDH release), effect-target ratio 5:1
B1	30.3%	48.5%	51.2%	81.2%
B2	14%	23.2%	41%	56.9%
B3	9.93%	12.2%	35%	57.3%
B4	22.2%	37.3%	56.2%	61.4%
B5	15.2%	35.2%	44%	62.5%
B6	31.1%	50%	62.8%	86.8%

Source: US20230322940A1 (published 2023)
